Data taken from the supplement of paper PMC10065799, “High-throughput profiling of sequence recognition by tyrosine kinases and SH2 domains using bacterial peptide display” (eLife, 2023).

Columns and labels:
EPHB2 = EPHB2 (UniProt P29323); assay: phosphorylation enrichment, bacterial display (enrichment ratio); higher = better substrate or ligand; peptides without Tyr show the background
Fyn = Fyn (UniProt P06241); assay: as above
c-Abl (mouse) = assay: as above
Fer (mouse) = assay: as above
Jak2 = Jak2 (UniProt O60674); assay: as above
Jak2, sequence (O60674 whole entry, looked up): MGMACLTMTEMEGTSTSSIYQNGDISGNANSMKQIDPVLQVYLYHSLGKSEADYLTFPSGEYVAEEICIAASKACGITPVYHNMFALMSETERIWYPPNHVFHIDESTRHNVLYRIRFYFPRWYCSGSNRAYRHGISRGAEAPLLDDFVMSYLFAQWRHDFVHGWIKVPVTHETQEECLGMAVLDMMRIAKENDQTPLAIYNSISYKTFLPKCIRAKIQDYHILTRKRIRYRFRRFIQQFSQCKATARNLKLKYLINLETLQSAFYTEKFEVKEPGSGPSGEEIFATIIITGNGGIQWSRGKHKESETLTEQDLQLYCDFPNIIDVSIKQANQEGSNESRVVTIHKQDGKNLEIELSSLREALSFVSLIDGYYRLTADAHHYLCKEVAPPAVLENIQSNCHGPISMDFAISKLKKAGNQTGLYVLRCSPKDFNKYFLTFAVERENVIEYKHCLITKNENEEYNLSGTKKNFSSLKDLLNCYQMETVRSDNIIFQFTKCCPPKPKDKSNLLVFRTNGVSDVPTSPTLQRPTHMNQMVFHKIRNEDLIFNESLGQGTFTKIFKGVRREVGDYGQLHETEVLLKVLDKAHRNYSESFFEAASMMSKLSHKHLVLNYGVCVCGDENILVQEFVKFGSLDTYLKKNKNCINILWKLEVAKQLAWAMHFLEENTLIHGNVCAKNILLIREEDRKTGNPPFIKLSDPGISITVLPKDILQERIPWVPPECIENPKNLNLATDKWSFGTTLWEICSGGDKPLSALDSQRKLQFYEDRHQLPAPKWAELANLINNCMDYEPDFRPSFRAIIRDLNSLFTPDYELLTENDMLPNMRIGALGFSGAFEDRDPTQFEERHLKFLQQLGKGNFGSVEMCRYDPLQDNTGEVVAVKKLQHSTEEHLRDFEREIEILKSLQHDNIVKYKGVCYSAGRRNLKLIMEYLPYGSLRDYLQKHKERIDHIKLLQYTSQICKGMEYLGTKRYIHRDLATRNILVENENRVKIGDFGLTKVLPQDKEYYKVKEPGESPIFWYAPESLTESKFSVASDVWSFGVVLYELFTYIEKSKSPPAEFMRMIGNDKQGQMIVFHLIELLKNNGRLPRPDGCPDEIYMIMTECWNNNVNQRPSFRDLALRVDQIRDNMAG

AncSZ = assay: as above
MERTK = MERTK (UniProt Q12866); assay: as above
Fes = Fes (UniProt P07332); assay: as above
Fes, sequence (P07332 whole entry, looked up): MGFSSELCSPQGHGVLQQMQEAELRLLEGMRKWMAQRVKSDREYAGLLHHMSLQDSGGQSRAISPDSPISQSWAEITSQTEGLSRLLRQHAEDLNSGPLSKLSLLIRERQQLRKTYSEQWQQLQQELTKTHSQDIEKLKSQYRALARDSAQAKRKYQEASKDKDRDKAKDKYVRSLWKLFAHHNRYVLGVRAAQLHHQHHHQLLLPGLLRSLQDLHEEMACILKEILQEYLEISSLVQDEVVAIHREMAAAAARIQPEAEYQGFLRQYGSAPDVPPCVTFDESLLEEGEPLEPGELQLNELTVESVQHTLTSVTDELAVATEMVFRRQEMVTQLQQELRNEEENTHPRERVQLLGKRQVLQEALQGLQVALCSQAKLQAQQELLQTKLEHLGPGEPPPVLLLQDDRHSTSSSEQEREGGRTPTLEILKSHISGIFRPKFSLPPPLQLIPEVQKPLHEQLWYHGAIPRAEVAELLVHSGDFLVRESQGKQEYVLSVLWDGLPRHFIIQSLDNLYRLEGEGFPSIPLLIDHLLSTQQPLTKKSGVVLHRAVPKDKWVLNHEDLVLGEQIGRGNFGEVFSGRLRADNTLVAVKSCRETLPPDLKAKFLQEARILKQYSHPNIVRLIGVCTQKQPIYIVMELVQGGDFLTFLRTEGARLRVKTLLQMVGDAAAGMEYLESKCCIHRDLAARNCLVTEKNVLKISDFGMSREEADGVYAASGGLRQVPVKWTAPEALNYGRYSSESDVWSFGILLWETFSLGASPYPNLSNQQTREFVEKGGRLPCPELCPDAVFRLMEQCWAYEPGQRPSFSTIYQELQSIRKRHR

FGFR3 = FGFR3 (UniProt P22607); assay: as above
FGFR3, sequence (P22607 whole entry, looked up): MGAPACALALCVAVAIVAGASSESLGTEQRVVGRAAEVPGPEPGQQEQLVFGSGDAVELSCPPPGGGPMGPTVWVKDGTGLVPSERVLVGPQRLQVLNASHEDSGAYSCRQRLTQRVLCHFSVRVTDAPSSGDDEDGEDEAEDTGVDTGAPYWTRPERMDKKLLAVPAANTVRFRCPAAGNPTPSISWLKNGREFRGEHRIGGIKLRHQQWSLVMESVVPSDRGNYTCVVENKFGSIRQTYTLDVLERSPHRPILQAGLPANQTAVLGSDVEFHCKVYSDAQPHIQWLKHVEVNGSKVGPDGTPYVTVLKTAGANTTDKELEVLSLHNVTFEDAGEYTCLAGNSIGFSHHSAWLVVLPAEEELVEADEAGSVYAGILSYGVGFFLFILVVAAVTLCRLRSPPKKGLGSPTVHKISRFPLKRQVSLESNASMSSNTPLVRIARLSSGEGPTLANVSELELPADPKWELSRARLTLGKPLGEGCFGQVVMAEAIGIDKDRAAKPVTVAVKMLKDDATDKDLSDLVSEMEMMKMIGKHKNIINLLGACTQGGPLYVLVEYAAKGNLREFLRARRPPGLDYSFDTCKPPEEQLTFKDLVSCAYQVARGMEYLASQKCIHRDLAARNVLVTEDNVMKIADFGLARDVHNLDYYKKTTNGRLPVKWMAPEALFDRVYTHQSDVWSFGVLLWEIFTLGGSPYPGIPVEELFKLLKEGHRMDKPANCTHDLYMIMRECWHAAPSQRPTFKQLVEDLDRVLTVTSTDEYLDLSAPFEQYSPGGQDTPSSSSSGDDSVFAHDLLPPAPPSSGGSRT

c-Src = assay: as above
FGFR1 = FGFR1 (UniProt P11362); assay: as above
Hck = Hck (UniProt P08631); assay: as above
EPHB1 = EPHB1 (UniProt P54762); assay: as above
EPHB1, sequence (P54762 whole entry, looked up): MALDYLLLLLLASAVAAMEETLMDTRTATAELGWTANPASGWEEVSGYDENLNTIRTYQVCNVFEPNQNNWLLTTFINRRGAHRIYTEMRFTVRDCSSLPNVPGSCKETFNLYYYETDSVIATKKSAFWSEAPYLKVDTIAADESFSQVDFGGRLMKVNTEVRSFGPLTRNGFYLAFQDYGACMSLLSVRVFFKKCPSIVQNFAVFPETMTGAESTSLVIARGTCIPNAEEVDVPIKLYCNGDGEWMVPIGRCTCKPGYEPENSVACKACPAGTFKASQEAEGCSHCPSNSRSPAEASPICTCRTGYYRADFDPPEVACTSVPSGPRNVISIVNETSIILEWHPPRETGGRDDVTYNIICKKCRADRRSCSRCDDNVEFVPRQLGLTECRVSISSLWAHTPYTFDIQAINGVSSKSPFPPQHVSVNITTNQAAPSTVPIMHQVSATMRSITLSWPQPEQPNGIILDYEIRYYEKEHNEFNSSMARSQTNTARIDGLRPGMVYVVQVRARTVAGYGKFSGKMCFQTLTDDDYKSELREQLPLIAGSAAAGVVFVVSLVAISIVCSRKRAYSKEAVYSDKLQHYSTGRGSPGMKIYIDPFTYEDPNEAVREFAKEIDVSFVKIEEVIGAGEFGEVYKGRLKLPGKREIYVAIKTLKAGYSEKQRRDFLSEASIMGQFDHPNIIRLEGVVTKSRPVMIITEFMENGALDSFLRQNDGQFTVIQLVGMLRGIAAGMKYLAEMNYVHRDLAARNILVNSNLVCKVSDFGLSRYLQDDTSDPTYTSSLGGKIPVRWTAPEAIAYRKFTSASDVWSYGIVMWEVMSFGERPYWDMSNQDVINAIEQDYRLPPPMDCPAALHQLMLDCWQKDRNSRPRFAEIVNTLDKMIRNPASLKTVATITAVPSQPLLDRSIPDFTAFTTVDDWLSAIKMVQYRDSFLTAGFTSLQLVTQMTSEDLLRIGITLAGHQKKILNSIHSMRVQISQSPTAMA

c-Src SH2 = assay: SH2 binding enrichment of the phosphorylated peptide, bacterial display (enrichment ratio); higher = better substrate or ligand; peptides without Tyr show the background
SHP2-C SH2 = assay: as above
Grb2 SH2 = Grb2 SH2 (UniProt P62993); assay: as above
Grb2 SH2, sequence (P62993 whole entry, looked up, the tested form may be a part): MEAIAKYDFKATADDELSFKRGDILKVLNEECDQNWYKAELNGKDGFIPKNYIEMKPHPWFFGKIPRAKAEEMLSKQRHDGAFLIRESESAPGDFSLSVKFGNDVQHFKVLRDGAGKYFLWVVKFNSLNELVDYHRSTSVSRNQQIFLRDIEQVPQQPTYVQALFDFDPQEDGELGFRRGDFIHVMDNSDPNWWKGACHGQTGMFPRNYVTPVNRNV
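Throughout, for SH2 binding enrichment of the phosphorylated peptide, bacterial display: peptide library displayed on the E. coli surface as eCPX fusions, selected cells deep-sequenced, score is each peptide's frequency after selection divided by its frequency in the input.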
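Throughout, for phosphorylation enrichment, bacterial display: 11-residue human phosphosite peptides and single-mutation variants displayed on the E. coli surface, counted by deep sequencing, each peptide's frequency after selection divided by its frequency in the unselected input library; frequency after pTyr selection over input frequency; kinase dosed for 20-30% of maximal phosphorylation in three min.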

EPHB2, sequence (P29323 whole entry, looked up): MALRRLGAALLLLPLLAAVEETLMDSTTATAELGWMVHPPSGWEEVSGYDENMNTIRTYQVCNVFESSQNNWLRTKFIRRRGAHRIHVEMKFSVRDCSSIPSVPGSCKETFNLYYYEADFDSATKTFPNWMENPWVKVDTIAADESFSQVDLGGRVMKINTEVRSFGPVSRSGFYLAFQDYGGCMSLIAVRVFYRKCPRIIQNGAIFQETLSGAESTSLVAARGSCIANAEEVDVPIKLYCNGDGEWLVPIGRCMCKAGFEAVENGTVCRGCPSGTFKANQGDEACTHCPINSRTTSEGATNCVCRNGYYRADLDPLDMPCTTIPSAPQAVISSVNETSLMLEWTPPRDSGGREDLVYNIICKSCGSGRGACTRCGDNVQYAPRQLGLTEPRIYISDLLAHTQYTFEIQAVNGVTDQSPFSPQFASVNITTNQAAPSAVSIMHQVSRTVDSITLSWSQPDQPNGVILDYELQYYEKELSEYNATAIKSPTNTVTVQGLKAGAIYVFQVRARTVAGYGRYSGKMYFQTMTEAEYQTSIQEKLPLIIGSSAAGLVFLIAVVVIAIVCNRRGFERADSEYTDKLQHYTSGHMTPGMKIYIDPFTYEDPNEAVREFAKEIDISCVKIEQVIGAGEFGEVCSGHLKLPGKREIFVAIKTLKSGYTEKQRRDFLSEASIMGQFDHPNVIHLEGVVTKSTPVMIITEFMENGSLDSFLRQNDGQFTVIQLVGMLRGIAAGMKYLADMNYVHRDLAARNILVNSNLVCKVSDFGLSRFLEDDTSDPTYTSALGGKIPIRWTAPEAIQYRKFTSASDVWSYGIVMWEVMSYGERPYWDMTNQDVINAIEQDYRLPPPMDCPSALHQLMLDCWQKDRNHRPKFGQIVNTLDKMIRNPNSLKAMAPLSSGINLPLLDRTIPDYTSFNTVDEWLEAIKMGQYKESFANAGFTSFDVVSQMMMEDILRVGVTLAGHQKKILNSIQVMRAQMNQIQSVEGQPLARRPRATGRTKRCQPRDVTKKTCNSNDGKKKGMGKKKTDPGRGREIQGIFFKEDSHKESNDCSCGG

Row | Sequence | phosphorylation enrichment (EPHB2) | phosphorylation enrichment (Fyn) | phosphorylation enrichment (c-Abl (mouse)) | phosphorylation enrichment (Fer (mouse)) | phosphorylation enrichment (Jak2) | phosphorylation enrichment (AncSZ) | phosphorylation enrichment (MERTK) | phosphorylation enrichment (Fes) | phosphorylation enrichment (FGFR3) | phosphorylation enrichment (c-Src) | phosphorylation enrichment (FGFR1) | phosphorylation enrichment (Hck) | phosphorylation enrichment (EPHB1) | SH2 binding enrichment (c-Src SH2) | SH2 binding enrichment (SHP2-C SH2) | SH2 binding enrichment (Grb2 SH2)
1 | NTTIHYNYMCN [TP53_Y234_C229N] | 0.692 | 0.55 | 0.707 | 0.566 | 0.817 | 1.08 | 0.574 | 1.06 | 0.803 | 0.496 | 0.767 | 0.579 | 0.747 | 2.42 | 0.848 | 0.931
2 | YRQNVYIPGSN [PCDHGA1_Y895] | 0.429 | 0.435 | 0.531 | 0.405 | 0.576 | 0.564 | 0.424 | 0.626 | 0.519 | 0.454 | 0.427 | 0.435 | 0.421 | 0.43 | 0.661 | 0.829
3 | KPPPSYESEEE [BRD4_Y599_T598S] | 0.761 | 0.639 | 0.957 | 0.557 | 1.32 | 1.42 | 0.543 | 1.29 | 0.71 | 0.591 | 0.584 | 0.601 | 0.611 | 0.762 | 0.517 | 1.04
4 | HKLSSYEYDFE [BTK_Y40_Y39S] | 0.789 | 0.72 | 0.966 | 1.03 | 1.38 | 1.84 | 0.911 | 1.51 | 1.04 | 1.43 | 0.952 | 0.952 | 0.822 | 1.33 | 0.411 | 0.69
5 | PTTKTYLPHFD [HBA1_Y43_F44L] | 0.489 | 0.622 | 0.307 | 0.386 | 0.456 | 0.839 | 0.494 | 0.77 | 0.58 | 0.458 | 0.508 | 0.389 | 0.362 | 0.483 | 0.756 | 0.901
6 | RLLRGYDQYAY [HLA-B_Y137_H137Y] | 0.821 | 0.518 | 0.659 | 0.476 | 0.844 | 0.865 | 0.596 | 0.924 | 0.508 | 0.738 | 0.548 | 0.575 | 0.636 | 2.15 | 0.954 | 1.26
7 | THPFLYLSLEI [MLH1_Y293] | 0.648 | 0.383 | 0.817 | 0.478 | 1.4 | 1.13 | 0.385 | 1.52 | 0.827 | 0.363 | 0.622 | 0.516 | 0.628 | 0.682 | 0.74 | 1.19
8 | GPQSLYNGLVA [UCP2_Y79_R76Q] | 0.551 | 0.85 | 0.628 | 0.552 | 0.744 | 0.622 | 0.723 | 0.614 | 0.515 | 1.83 | 0.493 | 3.69 | 0.477 | 0.697 | 0.546 | 0.664
9 | GVPLGYPIKAS [ELN_Y206_P211S] | 0.333 | 0.368 | 0.714 | 0.376 | 0.477 | 0.438 | 0.366 | 0.576 | 0.412 | 0.381 | 0.407 | 0.404 | 0.327 | 0.423 | 0.581 | 0.783
10 | SSEYHYVGGFY [CTSC_Y347] | 12.9 | 3.79 | 14.9 | 2.24 | 2.69 | 3.53 | 6.87 | 0.787 | 11.3 | 3.33 | 13.4 | 4.79 | 9.7 | 1.49 | 4.12 | 0.998
11 | NPIGLYSAETL [LDB3_Y202] | 1.74 | 0.666 | 0.496 | 1.12 | 0.71 | 0.691 | 4.18 | 0.72 | 0.498 | 0.962 | 0.451 | 0.967 | 1.73 | 0.486 | 0.769 | 0.813
12 | TNYRFYLRSLE [MTM1_Y71_L70F] | 0.532 | 0.48 | 0.835 | 0.421 | 1.09 | 1.19 | 0.423 | 1.18 | 0.855 | 0.41 | 0.438 | 0.558 | 0.619 | 0.495 | 0.717 | 0.895
13 | ETKKQYDSFTY [TMED3_Y85] | 0.493 | 0.531 | 0.639 | 0.542 | 0.656 | 0.735 | 0.524 | 0.828 | 0.581 | 0.604 | 0.5 | 0.54 | 0.397 | 1 | 0.714 | 0.772
14 | GGQVFYNSEYG [FLT4_Y1333] | 0.442 | 0.456 | 0.497 | 0.36 | 0.751 | 0.719 | 0.467 | 0.779 | 0.558 | 0.521 | 0.376 | 0.462 | 0.402 | 0.435 | 0.707 | 0.648
15 | KGERGYPGTLG [COL4A1_Y348_P352L] | 0.439 | 0.392 | 0.398 | 0.345 | 0.475 | 0.597 | 0.403 | 0.505 | 0.484 | 0.337 | 0.375 | 0.448 | 0.339 | 0.421 | 0.537 | 0.873
16 | LEIETYRRLLD [KRT12_Y429] | 0.549 | 0.468 | 0.656 | 0.471 | 1.01 | 0.854 | 0.367 | 1.03 | 0.627 | 0.369 | 0.45 | 0.497 | 0.616 | 0.473 | 0.602 | 0.762
17 | FMGVEYSSCDT [EPHA3_Y937_T933M] | 0.756 | 0.441 | 0.827 | 0.64 | 1.2 | 1.32 | 0.479 | 1.31 | 0.838 | 0.521 | 0.601 | 0.61 | 0.683 | 1.43 | 0.588 | 0.598

Row | Sequence | phosphorylation enrichment (EPHB2) | phosphorylation enrichment (Fyn) | phosphorylation enrichment (c-Abl (mouse)) | phosphorylation enrichment (Fer (mouse)) | phosphorylation enrichment (Jak2) | phosphorylation enrichment (AncSZ) | phosphorylation enrichment (MERTK) | phosphorylation enrichment (Fes) | phosphorylation enrichment (FGFR3) | phosphorylation enrichment (c-Src) | phosphorylation enrichment (FGFR1) | phosphorylation enrichment (Hck) | phosphorylation enrichment (EPHB1) | SH2 binding enrichment (c-Src SH2) | SH2 binding enrichment (SHP2-C SH2) | SH2 binding enrichment (Grb2 SH2)
18 | SFLSYYTSHVQ [NEFL_Y443_P440L] | 1.01 | 0.585 | 0.828 | 0.583 | 2.1 | 1.01 | 2.19 | 1.1 | 1.01 | 0.936 | 1.04 | 0.794 | 1.26 | 2.51 | 3.81 | 1.17
19 | MGIMLYGVDSR [PKD1_Y3143_V3138M] | 0.576 | 0.467 | 0.745 | 0.529 | 1.03 | 0.931 | 0.475 | 1.08 | 0.694 | 0.496 | 0.449 | 0.55 | 0.546 | 0.439 | 0.653 | 0.61
20 | KYWREYILSLE [GPC3_Y299] | 0.569 | 0.427 | 0.677 | 0.366 | 0.974 | 1.03 | 0.39 | 1.05 | 0.752 | 0.856 | 0.499 | 0.461 | 0.541 | 1.37 | 1.71 | 1.48
21 | KKMEVYQSIAD [MYBPC3_Y548_L545M] | 0.627 | 0.943 | 0.764 | 0.508 | 1.04 | 0.927 | 0.451 | 1.04 | 0.681 | 0.91 | 0.719 | 1.47 | 0.745 | 1.28 | 0.576 | 0.775
22 | FADIAYNYRHA [PAH_Y166_G171A] | 0.437 | 0.425 | 0.474 | 0.424 | 0.648 | 0.578 | 0.466 | 0.779 | 0.542 | 0.503 | 0.322 | 0.415 | 0.593 | 0.549 | 0.681 | 0.852
23 | LRGVIYVILRK [PMP22_Y153_S149R] | 0.551 | 0.65 | 0.778 | 0.577 | 1.15 | 2.21 | 0.393 | 1.09 | 0.833 | 0.713 | 0.665 | 0.509 | 0.58 | 0.373 | 0.359 | 0.893
24 | PDSVDYPKKGF [CTSK_Y121_R122P_YF] | 1.13 | 1.17 | 2.12 | 1.52 | 1.97 | 1.75 | 1.31 | 1.78 | 1.05 | 1.52 | 1.12 | 1.15 | 1.48 | 0.531 | 0.486 | 0.872
25 | SIKGKYVTALF [KCNH2_Y611_D609G_YF] | 0.409 | 0.406 | 0.617 | 0.525 | 0.77 | 0.771 | 0.414 | 0.798 | 0.449 | 0.495 | 0.361 | 0.408 | 0.519 | 0.735 | 0.806 | 0.988
26 | GKSDPYHATTG [GJA1_Y247_S251T] | 0.254 | 0.345 | 0.476 | 0.38 | 0.41 | 0.396 | 0.319 | 0.506 | 0.409 | 0.361 | 0.374 | 0.413 | 0.287 | 0.416 | 0.778 | 0.771
27 | KVMANYVFKAG [MAML2_Y513_M514V_YF] | 0.515 | 0.382 | 0.485 | 0.355 | 0.564 | 0.617 | 0.401 | 0.656 | 0.486 | 0.433 | 0.459 | 0.435 | 0.396 | 0.614 | 0.663 | 1.1
28 | GFEVVYVTEPI [HSP90AB1_Y512_M513V] | 0.465 | 0.424 | 0.641 | 0.444 | 0.983 | 1.1 | 0.386 | 0.959 | 0.605 | 0.591 | 0.443 | 0.549 | 0.344 | 0.495 | 0.454 | 0.802
29 | SRWKLYPRMLR [HAO1_Y50] | 0.442 | 0.405 | 0.524 | 0.341 | 0.873 | 0.81 | 0.447 | 0.619 | 0.482 | 0.442 | 0.394 | 0.415 | 0.478 | 0.392 | 0.585 | 0.79
30 | REIIAYQPFGK [PRKCG_Y529_P524R_YF] | 0.385 | 0.499 | 0.705 | 0.291 | 0.584 | 0.524 | 0.305 | 0.635 | 0.398 | 0.466 | 0.305 | 0.438 | 0.51 | 1.01 | 0.951 | 1.19
31 | IVGLLYRLLTE [SETX_Y1978] | 0.672 | 0.436 | 0.733 | 0.561 | 1.13 | 1.29 | 0.71 | 1.35 | 0.937 | 0.539 | 0.699 | 0.596 | 0.665 | 1.89 | 1.37 | 2.03
32 | RGSQQYRALPV [TUBB8_Y281_T285P] | 0.563 | 0.655 | 0.694 | 0.434 | 0.789 | 0.618 | 0.525 | 0.686 | 0.546 | 0.588 | 0.803 | 0.388 | 0.533 | 0.646 | 1.49 | 0.944
33 | HLSPEYKQNEI [GJB1_Y243_R238H] | 1.33 | 0.594 | 0.716 | 0.418 | 0.874 | 0.966 | 0.676 | 1.07 | 0.728 | 0.532 | 0.857 | 0.614 | 0.68 | 0.611 | 0.683 | 0.905
